{"source": "patent US20110097715", "about": "“METHOD FOR PURIFYING OR DETECTING A TARGET PROTEIN” (LFB - BIOTECHNOLOGIES, published 2011)", "key": {"[1]": {"molecular_target": "rabbit plasma-derived factor VII (Oryctolagus cuniculus, UniProt P98139 P98139:40-444)", "sequence (P98139 40-444, one chain of several)": "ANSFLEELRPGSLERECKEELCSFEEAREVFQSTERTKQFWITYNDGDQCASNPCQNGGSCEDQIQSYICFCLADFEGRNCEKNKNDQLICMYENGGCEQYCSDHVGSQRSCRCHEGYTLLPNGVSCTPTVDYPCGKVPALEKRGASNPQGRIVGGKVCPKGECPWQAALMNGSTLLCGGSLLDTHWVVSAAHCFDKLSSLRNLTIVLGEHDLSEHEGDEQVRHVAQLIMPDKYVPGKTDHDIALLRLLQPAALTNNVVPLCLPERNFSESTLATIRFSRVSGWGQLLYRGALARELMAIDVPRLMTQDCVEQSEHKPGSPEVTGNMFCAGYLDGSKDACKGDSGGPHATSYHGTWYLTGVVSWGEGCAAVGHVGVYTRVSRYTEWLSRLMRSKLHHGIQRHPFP", "assay": "SPR; complete absence of binding at 50-400 nM; same buffer (CaCl2 2 mM)", "conditions": "tags: American Diagnostica; label: 3'-biotin", "description": "(§1) This aptamer is modified at the 3′-end thereof by grafting a biotin. Nucleotide bases in bold (SEQ no 1) are 2′O-methylated, which makes it possible to stabilize the aptamer by making it more resistant to nucleases. The aptamer was then immobilized onto an avidin-containing SA chip (Biacore GE). The aptamer was thus immobilized in an oriented manner through the 3′-end thereof with an immobilization rate of 2700 RU (where 1 RU does approximately correspond to 1 pg of immobilized product per mm²).\nRabbit plasma-derived factor VII (American Diagnostica) was diluted in the same buffer as in Example 1 at concentration levels of 50, 100 200, 400 nM, thereafter was injected under the same conditions as in Example 1 into the same chip containing the immobilized aptamer."}, "[2]": {"molecular_target": "human plasma-derived factor VII (HP FVII) (Homo sapiens, UniProt P08709 P08709:61-466)", "sequence (P08709 61-466, one chain of several)": "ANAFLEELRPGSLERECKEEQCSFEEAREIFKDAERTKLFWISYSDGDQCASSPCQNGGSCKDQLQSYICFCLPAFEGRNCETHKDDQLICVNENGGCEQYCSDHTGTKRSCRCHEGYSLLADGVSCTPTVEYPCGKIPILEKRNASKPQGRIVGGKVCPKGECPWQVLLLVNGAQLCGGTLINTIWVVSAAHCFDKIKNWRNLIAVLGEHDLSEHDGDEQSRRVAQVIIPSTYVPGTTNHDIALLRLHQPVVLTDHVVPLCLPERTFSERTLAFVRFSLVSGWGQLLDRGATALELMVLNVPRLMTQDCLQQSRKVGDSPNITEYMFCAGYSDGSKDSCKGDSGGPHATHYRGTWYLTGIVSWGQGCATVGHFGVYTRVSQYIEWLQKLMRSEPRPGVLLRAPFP", "assay": "SPR; Hepes 20 mM pH 8, NaCl 50 mM, CaCl2 2 mM, BSA 0.01%; aptamer immobilized via 3'-biotin on SA chip; allosteric binding model; FVII 50-400 nM", "conditions": "tags: plasma-derived, purity 99%; label: 3'-biotin", "description": "as §1\nSome purified, human plasma-derived factor VII (HP FVII, purity: 99%) was diluted in run buffer (Hepes 20 mM pH=8, NaCl 50 mM, CaCl₂ 2 mM and BSA 0.01%) so as to obtain four samples with human plasma-derived factor VII concentration levels of 50, 100, 200 and 400 nM. Each sample was injected sequentially into the same immobilized aptamer-containing chip through a biotin-streptavidin interaction. Controls are obtained by injecting blanks which only contained the run buffer. All injections are performed at a flow rate of 20 μl/min for 120 sec, after injection of the run buffer into the chip at the same flow rate for 240 sec. […] A binding to the immobilized aptamer generates a signal increase expressed in resonance unit (RU) recorded by the device (FIG. 1). […] The modelling of the recorded interactions was made by means of the Biaevaluation software (GE)."}}, "data": [{"binder": "anti-human FVII aptamer (SEQ no 1) (ssRNA, 2'-OMe at bases shown in bold in the patent (positions not recoverable from text); 3'-biotin) RNA: GGGAGAGAGGAAGAGGGAUGGGAGCCUAUGUAACAGAUGCAGAUCCCUAGUCGUCCCAACACCAUAAC", "values": [{"measurement": "binding result", "setting": "[1]", "result": "no binding"}, {"measurement": "Kd", "setting": "[2]", "result": 1400, "unit": "nM"}]}]}
